These results are taken from article PMC3956856, “Interaction of Kinase-Interaction-Motif Protein Tyrosine Phosphatases with the Mitogen-Activated Protein Kinase ERK2” (PLoS ONE, 2014).

The Kd is the free concentration of one partner at which half of the binding sites on the other are occupied at equilibrium, for simple one-to-one binding.

T1: STEPKIM peptide (STEP residues 213-229) (mouse, UniProt P54830 213-229)
T1 construct: STEP (PTPN5, striatal enriched protein tyrosine phosphatase), residues 213-229 (KIM); mouse is stated for the STEP 213-539 construct; source: synthetic peptide (Biosynthesis, Inc.), HPLC purified, >98% purity
T1 peptide (looked up): MGLQERRGSNVSLTLDM

T2: STEP KIMKIS peptide (STEP residues 213-256) (mouse, UniProt P54830 213-256)
T2 construct: STEP (PTPN5), residues 213-256 (KIM and KIS); mouse is stated for the STEP 213-539 construct; source: synthetic peptide (Biosynthesis, Inc.), HPLC purified, >98% purity
T2 peptide (looked up): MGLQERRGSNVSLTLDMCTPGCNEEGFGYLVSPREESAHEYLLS

T3: PTPSL KIMKIS (PTPSL residues 332-373) (human, UniProt Q15256 332-373)
T3 construct: PTPSL/PTPBR7 (PTPRR), residues 332-373 (KIM and KIS); human is stated for the PTPSL 332-655 construct; Recombinant, not synthetic; source: final SEC
T3 chain (looked up): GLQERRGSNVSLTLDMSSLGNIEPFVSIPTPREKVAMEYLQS

B1: PTPSL (residues 332-655, human) (domain or fragment, UniProt Q15256 332-655, looked up)
chain: GLQERRGSNVSLTLDMSSLGNIEPFVSIPTPREKVAMEYLQSASRILTRSQLRDVVASSHLLQSEFMEIPMNFVDPKEIDIPRHGTKNRYKTILPNPLSRVCLRPKNVTDSLSTYINANYIRGYSGKEKAFIATQGPMINTVDDFWQMVWQEDSPVIVMITKLKEKNEKCVLYWPEKRGIYGKVEVLVISVNECDNYTIRNLVLKQGSHTQHVKHYWYTSWPDHKTPDSAQPLLQLMLDVEEDRLASQGRGPVVVHCSAGIGRTGCFIATSIGCQQLKEEGVVDALSIVCQLRMDRGGMVQTSEQYEFVHHALCLYESRLSAET
notes: PTPSL/PTPBR7 (PTPRR, PTP STEP-like), human, residues 332-655 (KIM, KIS and catalytic domain); The results loosely call this construct 'full-length PTPSL'; the construct is residues 332-655; also called PTPBR7; PTPRR; source: final SEC
B2: extracellular signal-regulated kinase 2 (ERK2), unphosphorylated (enzyme, UniProt P63086 1-358, looked up)
chain: MAAAAAAGPEMVRGQVFDVGPRYTNLSYIGEGAYGMVCSAYDNLNKVRVAIKKISPFEHQTYCQRTLREIKILLRFRHENIIGINDIIRAPTIEQMKDVYIVQDLMETDLYKLLKTQHLSNDHICYFLYQILRGLKYIHSANVLHRDLKPSNLLLNTTCDLKICDFGLARVADPDHDHTGFLTEYVATRWYRAPEIMLNSKGYTKSIDIWSVGCILAEMLSNRPIFPGKHYLDQLNHILGILGSPSQEDLNCIINLKARNYLLSLPHKNKVPWNRLFPNADSKALDLLDKMLTFNPHKRIEVEQALAHPYLEQYYDPSDEPIAEAPFKFDMELDDLPKEKLKELIFEETARFQPGYRS
notes: ERK2 (extracellular signal-regulated kinase 2), unphosphorylated; also called MAPK; source: final SEC (Superdex 75 26/60)

Data set [1] deals with T4, ERK2 (Rattus norvegicus, UniProt P63086).
T4 construct: gene Mapk1; made in house
As to the kind of experiment: Isothermal titration calorimetry with ERK2. The data set is classed as binding. Here is the method:
The PTPSLKIM peptide (residues 331–348), STEPKIM (residues 213–229) and STEPKIMKIS (residues 213–256) were synthesized, HPLC purified and verified by mass spectrometry (MS) (>98% purity; Biosynthesis, Inc.). Expression and purification of ERK2 and PTPSLKIMKIS (residues 332–373) was carried out as previously described, [15]. PTPSL (residues 332–655, human), STEP (residues 213–539, mouse) and PSChimera (PTPSL residues 332–373 with STEP residues 257–539; gene synthesized by DNA 2.0) were expressed and purified using the protocol previously described in detail for STEPCAT (residues 244–539). The DUSP16 MAPK binding domain (residues 5–138, human) was expressed and purified as previously described. All purified proteins were stored at −80 °C until use at which point they were thawed and exchanged into the appropriate buffer using size exclusion chromatography (SEC; Superdex 75 26/60; GE Healthcare). The final protein buffer was dependent on the experiment performed. For ITC experiments, the final SEC purification was performed in ITC buffer (10 mM Tris pH 7.5, 150 mM NaCl, 0.1 mM EDTA, 0.5 mM TCEP); for SAXS experiments, the final SEC purification was performed in SAXS buffer (50 mM HEPES pH 6.8, 150 mM NaCl, 5 mM dithiothreitol). PTPSLKIM, STEPKIM and STEPKIMKIS peptides were solubilized in ITC buffer prior to ITC measurements.
ITC experiments were performed at 25 °C using a VP-ITC microcalorimeter (Microcal Inc.). Titrant (10 μL per injection) was injected into the sample cell over a period of 20 seconds with a 250 second interval between titrations to allow for complete equilibration and baseline recovery. 28 injections were delivered during each experiment and the solution in the sample cell was stirred at 307 rpm to ensure rapid mixing. To determine the thermodynamic parameters (ΔH, ΔS, ΔG) and binding constants (K) of the ERK2:PTPSLKIM, ERK2:PTPSL, ERK2:STEP and ERK2:PSChimera interactions, PTPSLKIM, PTPSL, STEP and PSChimera were titrated into ERK2. To determine the same parameters for the ERK2:STEPKIM, ERK2:PTPSLKIMKIS and ERK2:STEPKIMKIS interaction, ERK2 was titrated into the peptides. Titrants were chosen based on the amount of purified protein/peptide available for the experiment. For all titrations the concentrations were slightly varied to ensure independence of the Kd from the protein/peptide concentrations. Data were analyzed with a one-site binding model assuming a binding stoichiometry of 1∶1 using Origin 7.0 software. A nonlinear least-squares algorithm and the titrant and sample cell concentrations were used to fit the heat flow per injection to an equilibrium binding equation, providing values of the stoichiometry (n), change in enthalpy (ΔH) and binding constant (K). All data were repeated in triplicate.
For orientation: ITC needs no label: the signal is the heat of the interaction.

Another data set addresses p38α. Particulars: values previously published, ref [14], [15], [17], [18]; cited from earlier work. The text has this:
We used ITC measurements to determine the binding affinity of STEP and PTPSL for unphosphorylated ERK2 ( Table 1; Figure S1). […] This complex has a ∼3-times lower Kd (tighter binding) than the next tightest complex, ERK2:PTPSL, and a nearly 70-fold greater affinity than the weakest complex, p38α:HePTP [15]. Like STEP, PTPSL binds ERK2 more tightly (∼3.5-fold) than p38α. We also tested peptides that include the kinase specificity s ... || We also generated a chimeric protein in which we fused the PTPSLKIMKIS to STEPCAT (PSchimera; Figure 1A ). […] Thus, they only adopt a single conformation when they bind their respective MAPKs. This is different from the MAPK-binding domains (MKBD) of MAPK phosphatases (MKP; dual specificity phosphatases; DUSPs), [26]. In MKPs, the KIM sequence is part of a stable, folded domain and thus adopts a single, ordered conformation in both the unbound and MAPK-bound states, [28]. […] Our ... || (+ 1 further places)

In data set [2] the target is T4, ERK2. As to the kind of experiment: SAXS of resting-state complexes with ERK2. The settings on record: ERK2:PTPSL complex; 50 mM HEPES pH 6.8, 150 mM NaCl, 5 mM dithiothreitol.
Data set [3] addresses T4, ERK2. The settings on record: structural model from cross-linking, MS and molecular modeling; ref [24]; cited from earlier work. The source says: In this model, PTPSLCAT binds ERK2 in an orientation in which the catalytic site is positioned near the ERK2 phosphorylation loop. This is different from the p38 ... || Figure 3 Regulatory protein-MAPK interaction strengths. The binding strengths of each KIM-PTP (KIM peptides and KIM-containing MKBDs (in orange font), light blue; KIMKIS peptides, light purple; proteins, light pink) to p38α and ERK2 represented from weakest to tightest (largest Kd to smallest Kd) binding affinity; ‘^†’ indicates values previously published, [15], [17], [18]. KIM-PTP:MAPK complexes determined to be extended using SAXS written in normal text; KIM-PTP:MAPK complexes determined to be compact written in italics; *, compact nature of the ERK2-PTPSL complex determined by ...

The target in data set [4] is B2. As to the kind of experiment: ITC; PTPSLKIM, PTPSL, STEP or PSChimera titrated into ERK2 in the cell; 25 °C; 10 mM Tris pH 7.5, 150 mM NaCl, 0.1 mM EDTA, 0.5 mM TCEP; one-site model; triplicate. The settings on record: both partners purified.
For data set [5], the target named is T1, STEPKIM peptide (STEP residues 213-229). As to the kind of experiment: ITC; ERK2 titrated into STEPKIM, PTPSL KIMKIS or STEP KIMKIS in the cell; 25 °C; 10 mM Tris pH 7.5, 150 mM NaCl, 0.1 mM EDTA, 0.5 mM TCEP; one-site model; triplicate. The settings on record: both partners purified.
Data set [6] addresses T2, STEP KIMKIS peptide (STEP residues …). Described as above. Particulars: both partners purified.
The target in data set [7] is T3, PTPSL KIMKIS (PTPSL residues 332-373). Described as above. The settings on record: both partners purified.

“Also recorded” adds a separate entry of the source.

As to B1, in the data set with ERK2 [1] (ERK2, ITC), the “relative binding to ERK2 (in words)” value was “more strongly than does HePTP”. In the data set with ERK2 [1] (ERK2, ITC, versus PTPSLKIM), the “tighter binding to ERK2 than the PTPSLKIM peptide” value is on record as ~4 times. Also, the “tighter binding to ERK2 than to p38α (fold difference in affinity)” value with ERK2 [1] (ITC Kd, ERK2 versus p38α) is ~3.5 fold. The “affinity for ERK2 compared with p38α (in words)” value in the data set with ERK2 [1] (ITC, ERK2 versus p38α) is given as “higher binding affinity for ERK2 than for p38α; also recorded: bind more strongly to ERK2”. In addition, the TΔS with ERK2 [1] (unphosphorylated ERK2, ITC, 25 °C, 10 mM Tris pH 7.5, 150 mM NaCl, 0.1 mM EDTA, 0.5 mM TCEP, average and standard deviation, triplicate) is -12.8 ± 2.1 kcal/mol. Moreover, the Kd is 382 ± 65 nM on p38α and 108 nM in data set [4]. In addition, the “aggregation of the ERK2:PTPSL complex in SAXS samples” value with ERK2 [2] is “persistently exhibited the typical hallmarks of aggregation”. In addition, in the data set with ERK2 [3], the “shape of the ERK2:PTPSL resting-state complex (in words)” value was “compact, with ERK2 and PTPSL associating in a side-by-side manner”. The dH in data set [4] is -22.3 kcal/mol.

For B2, the dH in data set [5] is -27.9 kcal/mol; in data set [6], -29.2 kcal/mol; in data set [7], -21.6 kcal/mol.
